Literature values as cited in PMC6503043.
pKd: −log10 of the molar value. Read-outs that look alike come from different tables or passages of the source.

What was measured:
CD28 (Homo sapiens) [1] = molecular target: CD28 (Homo sapiens) (UniProt P10747)
CD28 (Homo sapiens) [2] = molecular target: CD28 (Homo sapiens) (UniProt P10747); remark: listed apart in the source

| pKd (CD28 (Homo sapiens) [1]) | pKd (CD28 (Homo sapiens) [2]) | Substance |
| --- | --- | --- |
| 4.70 | – | B7-2 (from UniProt P42081) |
| – | 5.30 | B7-1 (from UniProt P33681) |
